Measurements from US20230324413A1, “RENIN-BASED ANALYSIS OF HEPCIDIN” (TAMPERE UNIVERSITY FOUNDATION SR, priority 2020, published 2023).

Biological target: T1, human renin (Homo sapiens, UniProt P00797)
T1 construct: purchased Biovision, Inc. San Francisco, CA
T1 sequence (P00797 67-406): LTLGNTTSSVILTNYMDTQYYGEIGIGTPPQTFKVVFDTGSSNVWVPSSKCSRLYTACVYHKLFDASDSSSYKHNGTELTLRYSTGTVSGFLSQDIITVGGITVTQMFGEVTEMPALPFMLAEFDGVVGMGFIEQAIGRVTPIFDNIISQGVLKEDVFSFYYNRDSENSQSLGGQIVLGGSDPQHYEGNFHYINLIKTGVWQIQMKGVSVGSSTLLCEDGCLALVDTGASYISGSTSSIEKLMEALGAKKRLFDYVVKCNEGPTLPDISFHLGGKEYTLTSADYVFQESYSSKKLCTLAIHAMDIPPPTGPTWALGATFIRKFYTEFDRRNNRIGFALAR
Assay: Renin inhibition screening kit, kinetic fluorescence measurement of renin enzyme activity
Type: biochemical
Conditions: for Inhibition of renin activity (in words): 10 nM, 100 nM and 500 nM, FIG. 5; for Mean inhibitory effect on renin activity: 37° C, 60 min kinetic fluorescence
Excerpt: Human hepcidin-25/LEAP-1 (hep-25, with disulfide bonds between Cys7-Cys23, Cys10-Cys13, […], and Cys14-Cys22, purity assessed by HPLC≥98.0%) was purchased from Peptides International (Peptides International Inc, Louisville, KY). N-terminal part of hepcidin, DTHFPICIF (hep-9; SEQ ID NO: 6) and DTHFP (hep-5; SEQ ID NO: 7), were synthetized by Proteogenix (Schiltigheim, France). Renin inhibition screening kit was purchased from Biovision (Biovision, Inc. San Francisco, CA). ForteBio's 96 well black plates were used in the measurements.
Hep-25, hep-9, and hep-5 were used in final sample concentrations of 10 nM, 100 nM and 500 nM to measure inhibition of renin enzyme activity. The concentrations used represent normal levels of hepcidin in human circulation. Fluorescence measurement was performed using Perkin Elmer UV/VIS Envision multimode plate reader. Excitation and emission wavelengths were 328 and 552 nm, respectively. Fluorescence was recorded every 60 s for 60 min at 37° C. Rate of renin inhibition was calculated following the manufacture's instructions.

Substance: DTHFP [hepcidin-5, N-terminal part of hepcidin, 5 amino acids, synthetized by Proteogenix]
- Inhibition of renin activity (in words): inhibited renin activity
- Mean inhibitory effect on renin activity (peptide concentration 10 nM): 50.1%
- Mean inhibitory effect on renin activity (peptide concentration 100 nM): 50.0%
- Mean inhibitory effect on renin activity (peptide concentration 500 nM): 58.6%

Substance: DTHFPICIF [hepcidin-9]
- Inhibition of renin activity (in words): inhibited renin activity
- Mean inhibitory effect on renin activity (peptide concentration 10 nM): 41.25%
- Mean inhibitory effect on renin activity (peptide concentration 100 nM): 41.15%
- Mean inhibitory effect on renin activity (peptide concentration 500 nM): 42.65%

Substance: hepcidin-25: mature bioactive 25 amino acid hepcidin peptide, SEQ ID NO: 1; purchased from Peptides International
- Mean inhibitory effect on renin activity (peptide concentration 10 nM): 20.4%
- Mean inhibitory effect on renin activity (peptide concentration 100 nM): 29.2%
- Mean inhibitory effect on renin activity (peptide concentration 500 nM): 38.3%
